# Laboratory results: patent US20160289336A1 (F STAR BIOTECHNOLOGY, published 2016)
# B1: antigen-binding Fc fragment H561-4 (designed binder)
# chain: TCPPCPAPELLGGPSVFLFPPKPKDTLMISRTPEVTCVVVDVSHEDPEVKFNWYVDGVEVHNAKTKPREEQYNSTYRVVSVLTVLHQDWLNGKEYKCKVSNKALPAPIEKTISKAKGQPREPQVYTLPPSRDEFFTYWVSLTCLVKGFYPSDIAVEWESNGQPENNYKTTPPVLDSDGSFFLYSKLTVDRRRWTAGNVFSCSVMHEALHNHYTQKSLSLSPGK
# notes: C-terminal K or GK may be clipped in manufacture; also called FS102; Fcab
# Columns and labels:
# [1] = biological target: T1, dimeric HER2 (extracellular domain of HER2 with Fc tag, R&D) (human, UniProt P04626 23-652); assay: ELISA, dimeric HER2 (ECD Fc-tag) coated at 2 µg/ml, biotinylated H561-4, Strep-HRP
# T1 construct: Bought protein; also called HER2 ECD Fc-tag; Fc-tagged HER2 ECD; not shown: Fc tag of the bought R&D protein
# Experimental: (§1) Monomeric HER2 (HER2 ECD untagged) and dimeric HER2 (HER2 ECD Fc-tag) were immobilised at 2 μg/ml on a 96-well maxisorp plate (Nunc) in PBS overnight at 4° C. The plates were blocked for 1 hour with 200 μl of 5% BSA in PBS. […] The dilution series was removed and the plate was washed 3× with phosphate buffered saline with Tween 20 (PBST).
# (§2) A 1:5000 dilution of Strep-HRP (Abcam ab) was prepared in 5% BSA and 100 μl was added to the plate and incubated for 1 hour at RT. The plate was then washed 3× with PBST before 100 μl of TMB (Roche) were added, and the plate incubated at RT for 2 mins. The reaction was stopped using 100 μl of 2 M H₂SO₄ and the plate was read at 450 nm.
# [2] = biological target: T2, monomeric HER2 (extracellular domain of HER2 without tag) (human, UniProt P04626 23-652); assay: ELISA, monomeric HER2 (ECD untagged) coated at 2 µg/ml, biotinylated H561-4, Strep-HRP; monomeric HER2, not dimeric HER2
# T2 construct: also called HER2 ECD untagged; untagged HER2 ECD, in house
# Experimental: as §1, §2
binder,measurement,setting,value
B1,EC50,[1],1.7 nM
same,EC50,[2],20.6 nM
